Results published in PMC5467268, “Crystal structures of U6 snRNA-specific terminal uridylyltransferase” (Nature Communications, 2017).
Where a chain is given by its changes, count along the chain named.

How the values were obtained:
[1] = target: T1, TUT1_ΔN (form-I crystal) (Homo sapiens, UniProt Q9H6E5, DEL235-304/C372A/C415A/C501A/C504S/DEL651-750); assay: X-ray crystal structure (soak), […] Å; type: binding; settings: Ba2+; 2 mM UTP, 4 mM BaCl2; incoming nucleotide site
T1 construct: gene TUT1; palm, fingers and KA-1 domains; residues 1-140, 235-304 and 651-750 removed; cysteine mutations (order of the two mutation sets read as form-I, form-II); pET22b His tag, E. coli
T1 sequence (Q9H6E5 with tags, fused parts or gaps DEL235-304/C372A/C415A/C501A/C504S/DEL651-750): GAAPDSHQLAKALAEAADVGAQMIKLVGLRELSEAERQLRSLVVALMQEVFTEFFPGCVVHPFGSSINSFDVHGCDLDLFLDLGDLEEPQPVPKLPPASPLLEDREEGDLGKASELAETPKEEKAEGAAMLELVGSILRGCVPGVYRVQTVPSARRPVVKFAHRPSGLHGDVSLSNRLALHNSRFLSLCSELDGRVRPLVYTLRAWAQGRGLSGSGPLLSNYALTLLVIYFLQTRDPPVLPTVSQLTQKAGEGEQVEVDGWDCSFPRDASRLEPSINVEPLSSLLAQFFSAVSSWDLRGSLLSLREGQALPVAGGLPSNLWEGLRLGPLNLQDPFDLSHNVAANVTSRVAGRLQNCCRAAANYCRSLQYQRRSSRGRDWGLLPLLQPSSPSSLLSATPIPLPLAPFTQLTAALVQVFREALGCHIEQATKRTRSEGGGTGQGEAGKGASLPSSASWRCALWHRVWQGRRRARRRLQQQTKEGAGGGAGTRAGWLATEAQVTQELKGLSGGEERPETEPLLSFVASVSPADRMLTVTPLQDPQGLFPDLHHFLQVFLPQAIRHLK

[2] = target: T2, TUT1_ΔN (form-II crystal) (Homo sapiens, UniProt Q9H6E5, DEL235-304/C372A/C399A/C415A/C501A/C504S/C574A/DEL651-750); assay: X-ray crystal structure (soak), […] Å; type: binding; settings: Mg2+; 2 mM UTP, 4 mM MgCl2; incoming nucleotide site
T2 construct: gene TUT1; palm, fingers and KA-1 domains; residues 1-140, 235-304 and 651-750 removed; cysteine mutations (order of the two mutation sets read as form-I, form-II); pET22b His tag, E. coli
T2 sequence (Q9H6E5 with tags, fused parts or gaps DEL235-304/C372A/C399A/C415A/C501A/C504S/C574A/DEL651-750): T1 sequence (Q9H6E5 with tags, fused parts or gaps DEL235-304/C372A/C415A/C501A/C504S/DEL651-750) with C189A, C364A

[3] = target: T2, TUT1_ΔN (form-II crystal); assay: X-ray crystal structure (soak), […] Å; type: binding; settings: Mg2+; 10 mM ATP, 20 mM MgCl2; incoming nucleotide site
[4] = substrate: Nc1ncnc2c1ncn2[C@@H]1O[C@H](COP(=O)(O)OP(=O)(O)OP(=O)(O)O)[C@@H](O)[C@H]1O; assay: purified protein; type: biochemical, Homo sapiens; settings: co-substrate 1 μM U6 snRNA-u4, 10 mM MgCl2, 100 mM NaCl, pH 8.5, 37 °C
[5] = substrate: O=c1ccn([C@@H]2O[C@H](COP(=O)(O)OP(=O)(O)OP(=O)(O)O)[C@@H](O)[C@H]2O)c(=O)[nH]1; assay: purified protein; type: biochemical, Homo sapiens; settings: co-substrate 1 μM U6 snRNA-u4, 10 mM MgCl2, 100 mM NaCl, pH 8.5, 37 °C

## O=c1ccn([C@@H]2O[C@H](COP(=O)(O)OP(=O)(O)OP(=O)(O)O)[C@@H](O)[C@H]2O)c(=O)[nH]1 [UTP]
[1]
  X-ray crystal structure (soak), 2.95 Å: The form-I TUT1_ΔN structure complexed with UTP (soaked in) was initially solved
[2]
  X-ray crystal structure (soak), 2.7 Å: form-II TUT1_ΔN with UTP and ATP soaked in were also analysed

## Nc1ncnc2c1ncn2[C@@H]1O[C@H](COP(=O)(O)OP(=O)(O)OP(=O)(O)O)[C@@H](O)[C@H]1O [ATP]
[3]
  X-ray crystal structure (soak), 2.8 Å: form-II TUT1_ΔN with UTP and ATP soaked in were also analysed

B1: human TUT1 (full-length, wild-type) (Homo sapiens) (protein)
chain: MAAVDSDVESLPRGGFRCCLCHVTTANRPSLDAHLGGRKHRHLVELRAARKAQGLRSVFVSGFPRDVDSAQLSEYFLAFGPVASVVMDKDKGVFAIVEMGDVGAREAVLSQSQHSLGGHRLRVRPREQKEFQSPASKSPKGAAPDSHQLAKALAEAADVGAQMIKLVGLRELSEAERQLRSLVVALMQEVFTEFFPGCVVHPFGSSINSFDVHGCDLDLFLDLGDLEEPQPVPKAPESPSLDSALASPLDPQALACTPASPPDSQPPASPQDSEALDFETPSSSLAPQTPDSALASETLASPQSLPPASPLLEDREEGDLGKASELAETPKEEKAEGAAMLELVGSILRGCVPGVYRVQTVPSARRPVVKFCHRPSGLHGDVSLSNRLALHNSRFLSLCSELDGRVRPLVYTLRCWAQGRGLSGSGPLLSNYALTLLVIYFLQTRDPPVLPTVSQLTQKAGEGEQVEVDGWDCSFPRDASRLEPSINVEPLSSLLAQFFSCVSCWDLRGSLLSLREGQALPVAGGLPSNLWEGLRLGPLNLQDPFDLSHNVAANVTSRVAGRLQNCCRAAANYCRSLQYQRRSSRGRDWGLLPLLQPSSPSSLLSATPIPLPLAPFTQLTAALVQVFREALGCHIEQATKRTRSEGGGTGESSQGGTSKRLKVDGQKNCCEEGKEEQQGCAGDGGEDRVEEMVIEVGEMVQDWAMQSPGQPGDLPLTTGKHGAPGEEGQPSHAALAERGPKGHEAAQEWSQGEAGKGASLPSSASWRCALWHRVWQGRRRARRRLQQQTKEGAGGGAGTRAGWLATEAQVTQELKGLSGGEERPETEPLLSFVASVSPADRMLTVTPLQDPQGLFPDLHHFLQVFLPQAIRHLK
notes: full-length 1-874, synthetic codon-optimised gene, pET22b (His tag, no cleavage told), E. coli BL21(DE3), Ni-NTA/heparin/Superdex 200
[4]
  Km: 1,380 μM
  kcat: 0.002 s^–1
[5]
  Km: 59 µM
  kcat: 0.059 s^–1
